# Substitutions are numbered along the chain they refer to.
# T1: human BCMA-Fc (human)
# T1 chain: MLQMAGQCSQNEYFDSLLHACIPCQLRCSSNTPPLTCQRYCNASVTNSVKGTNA
# B1: P1AG5031 (54_VH2a/VL2a) (antibody, V domains shown)
# VH: EVQLLESGGGLVQPGGSLRLSCAASGFTFSNAWMDWVRQAPGKGLEWVSQITAKSNNYATYYADSVKGRFTISRDNSKNTLYLQMNSLRAEDTAVYYCTDDGYHWGQGTLVTVSS
# VL: DIQMTQSPSSLSASVGDRVTITCRASEDIRNGLAWYQQKPGKAPKLLIYNANSLHTGVPSRFSGSGSGTDFTLTISSLQPEDFATYYCEDTSKYPYTFGQGTKLEIK
# B2: P1AG5061 (54 parental) (antibody, V domains shown)
# VH: EVQLVESGGGLVKPGESLRLSCAASGFTFSNAWMDWVRQAPGKRLEWIAQITAKSNNYATYYAAPVKGRFTISRDDSKNTLYLQMNSLKKEDTAVYYCTDDGYHWGQGTLVTVSS
# VL: B1 VL with D1A, T22A, F83E, T85I
# B3: P1AG5007 (E04_VH1a/VL1e) (antibody, V domains shown)
# VH: QVQLVQSGAEVKKPGASVKVSCKASGYTFTNYWMHWVRQAPGQGLEWMGIIHPNSGSTNYNEKFQGRVTMTRDTSTSTVYMELSSLRSEDTAVYYCARGIYDYPFAYWGQGTLVTVSS
# VL: DIQMTQSPSSLSASVGDRVTITCRASESVSIHGTHLMHWYQQKPGKAPKLLIYAASSLQSGVPSRFSGSGSGTDFTLTISSLQPEDFATYYCQQSIEDPYTFGGGTKVEIK
# B4: P1AG5027 (54_VH1b/VL1a_L1_pGL) (antibody, V domains shown)
# VH: B2 VH with E16G, R44G, K90T
# VL: B1 VL with D1A, G32D, A34G
# B5: P1AG5004 (E04_VH1a/VL1b) (antibody, V domains shown)
# VH: B3 VH
# VL: B3 VL with S57N, Q59E, G72E
# B6: P1AG5062 (E04 parental) (antibody, V domains shown)
# VH: QVQLQQPGAELVKPGASVKLSCKASGYTFTNYWMHWVKQRPGQGLEWIGIIHPNSGSTNYNEKFKSKATLTVDKSSSTAYMQLSSLTSEDSAVYYCARGIYDYPFAYWGQGTLVTVSS
# VL: DIVLTQSPASLAVSLGQRATISCRASESVSIHGTHLMHWYQQKPGQPPKLLIYAASNLESGVPARFSGSGSETDFTLNIHPVEEEDAATYFCQQSIEDPYTFGGGTKLEIK
# B7: P1AG5044 (E04_VH1b/VL1b) (antibody, V domains shown)
# VH: B3 VH with R72V, T74K
# VL: B3 VL with S57N, Q59E, G72E
# B8: P1AG5080 (54_VH1a_Y292D/VL2a) (antibody, V domains shown)
# VH: B2 VH with E16G, R44G, I48V, A49G, Y61D, K90T
# VL: B1 VL
# B9: P1AG5053 (E04_VH1a/VL1h) (antibody, V domains shown)
# VH: B3 VH
# VL: B3 VL with S57N, Q59E, G72E, Y91F
# B10: P1AG5076 (E04_VH1b/VL1h) (antibody, V domains shown)
# VH: B3 VH with R72V, T74K
# VL: B3 VL with S57N, Q59E, G72E, Y91F
# B11: P1AG5057 (54_VH1a_Y292D/VL1a) (antibody, V domains shown)
# VH: B2 VH with E16G, R44G, I48V, A49G, Y61D, K90T
# VL: B1 VL with D1A
# B12: P1AG5013 (54_VH2a/VL1a_L1_pGL) (antibody, V domains shown)
# VH: B1 VH
# VL: B1 VL with D1A, G32D, A34G
# B13: P1AG5056 (54_VH1b/VL1a_N651A) (antibody, V domains shown)
# VH: B2 VH with E16G, R44G, K90T
# VL: B1 VL with D1A, N50A
# B14: P1AG5071 (54_VH2a/VL1a_T699S) (antibody, V domains shown)
# VH: B1 VH
# VL: B1 VL with D1A, T56S
# B15: P1AG5036 (E04_VH1a/VL1f) (antibody, V domains shown)
# VH: B3 VH
# VL: B3 VL with G72E
# B16: P1AG5078 (E04_VH1b/VL1d) (antibody, V domains shown)
# VH: B3 VH with R72V, T74K
# VL: B3 VL with S57N, G72E
# B17: P1AG5072 (54_VH1b/VL1a) (antibody, V domains shown)
# VH: B2 VH with E16G, R44G, K90T
# VL: B1 VL with D1A
# B18: P1AG5063 (E04_VH1a/VL1a) (antibody, V domains shown)
# VH: B3 VH
# VL: B3 VL with S57N, Q59E
# Target: cynomolgus BCMA-Fc (cynomolgus)
# Sequence (chain, as listed by the source): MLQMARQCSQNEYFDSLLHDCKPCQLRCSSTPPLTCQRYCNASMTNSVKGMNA
# Assay: SPR, 25C
row,Binder,Kd
1,B1,4.7 nM
2,B2,1.9 nM
3,B3,12 nM
4,B4,1.2 nM
5,B5,16 nM
6,B6,33 nM
7,B7,20 nM
8,B8,4.3 nM
9,B9,13 nM
10,B10,23 nM
11,B11,4 nM
12,B12,1.9 nM
13,B13,13 nM
14,B14,6.5 nM
15,B15,9.5 nM
16,B16,22 nM
17,B17,3.2 nM
18,B18,28 nM

# Target: T1, human BCMA-Fc
# Assay: SPR, 25C
row,Binder,Kd
1,B1,2.4 nM
2,B2,1.4 nM
3,B3,3 nM
4,B4,1.7 nM
5,B5,2.5 nM
6,B6,3.1 nM
7,B7,1.8 nM
8,B8,1.3 nM
9,B9,2.4 nM
10,B10,1.9 nM
11,B11,1.7 nM
12,B12,2.4 nM
13,B13,4.2 nM
14,B14,3.4 nM
15,B15,2.9 nM
16,B16,2.4 nM
17,B17,1.3 nM
18,B18,1.6 nM
